Reference: US20150344570A1 (published 2015)

Each binder was assayed against T1, FcγRIa (human, UniProt P12314 16-292) (assay: SPR (Biacore); Ho Ab vs HoCon Ab GpH7-B3/GpL16-k0).
T1 construct: extracellular domain; Soluble extracellular domain expressed in FreeStyle293 cells, used as analyte in Biacore; also called FcgRI; 1a; not shown: His tag attached to the C terminus
Procedure: (§1) Analysis of interaction between objective antibody and the FcγR was carried out using Biacore T100 (GE Healthcare). HBS-EP+ (GE Healthcare) was used as the running buffer, and the measurement temperature was set to 25° C. Chips produced by immobilizing the antigen peptide by the amine coupling method to a Series S Sencor Chip CM5 (GE Healthcare), or alternatively, chips produced by allowing preliminarily biotinylated antigen peptides to interact with and immobilize onto a Series S Sensor Chip SA (certified) (GE Healthcare) were used. Antibodies of interest were captured onto an antigen peptide-immobilized chip, and allowed to interact to each FcγR diluted with running buffer. To regenerate and repeatedly use the chip, the antibodies captured on the chip were washed off by reacting 10 mM glycine-HCl, pH 1.5.

T1 sequence (P12314 16-292): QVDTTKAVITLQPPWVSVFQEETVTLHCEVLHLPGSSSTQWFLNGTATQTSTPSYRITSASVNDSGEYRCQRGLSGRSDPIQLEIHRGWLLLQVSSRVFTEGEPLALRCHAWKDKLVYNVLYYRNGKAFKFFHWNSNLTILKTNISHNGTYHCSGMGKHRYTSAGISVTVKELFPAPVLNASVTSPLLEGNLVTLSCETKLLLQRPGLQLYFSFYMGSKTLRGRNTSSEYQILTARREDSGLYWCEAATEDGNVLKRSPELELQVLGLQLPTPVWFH

Binder | Ho/Con_1a
GpH7-B3 variant T335_15Y/GpL16-k0 (antibody, human IgG1, kappa, also called Ho Ab T335_15Y) heavy: not shown light: DIVMTQSPLSLPVTPGEPASISCQASESLVHSNRNTYLHWYLQKPGQSPQLLIYKVSNRFSGVPDRFSGSGSGTDFTLKISRVEAEDVGVYYCSQNTHVPPTFGQGTKVEIERTVAAPSVFIFPPSDEQLKSGTASVVCLLNNFYPREAKVQWKVDNALQSGNSQESVTEQDSKDSTYSLSSTLTLSKADYEKHKVYACEVTHQGLSSPVTKSFNRGEC | 106 relative binding, control = 100
GpH7-B3 variant T335_12R/GpL16-k0 (antibody, human IgG1, kappa, also called Ho Ab T335_12R) heavy: not shown light: DIVMTQSPLSLPVTPGEPASISCQASESLVHSNRNTYLHWYLQKPGQSPQLLIYKVSNRFSGVPDRFSGSGSGTDFTLKISRVEAEDVGVYYCSQNTHVPPTFGQGTKVEIERTVAAPSVFIFPPSDEQLKSGTASVVCLLNNFYPREAKVQWKVDNALQSGNSQESVTEQDSKDSTYSLSSTLTLSKADYEKHKVYACEVTHQGLSSPVTKSFNRGEC | 106 relative binding, control = 100

Further lines, results first:

Ho/Con_1a | Binder
103 relative binding, control = 100 | GpH7-B3 variant T335_11K/GpL16-k0 (antibody, human IgG1, kappa, also called Ho Ab T335_11K) heavy: not shown light: DIVMTQSPLSLPVTPGEPASISCQASESLVHSNRNTYLHWYLQKPGQSPQLLIYKVSNRFSGVPDRFSGSGSGTDFTLKISRVEAEDVGVYYCSQNTHVPPTFGQGTKVEIERTVAAPSVFIFPPSDEQLKSGTASVVCLLNNFYPREAKVQWKVDNALQSGNSQESVTEQDSKDSTYSLSSTLTLSKADYEKHKVYACEVTHQGLSSPVTKSFNRGEC
91.2 relative binding, control = 100 | GpH7-B3 variant V266_19Q/GpL16-k0 (antibody, human IgG1, kappa, also called Ho Ab V266_19Q) heavy: not shown light: DIVMTQSPLSLPVTPGEPASISCQASESLVHSNRNTYLHWYLQKPGQSPQLLIYKVSNRFSGVPDRFSGSGSGTDFTLKISRVEAEDVGVYYCSQNTHVPPTFGQGTKVEIERTVAAPSVFIFPPSDEQLKSGTASVVCLLNNFYPREAKVQWKVDNALQSGNSQESVTEQDSKDSTYSLSSTLTLSKADYEKHKVYACEVTHQGLSSPVTKSFNRGEC
96.5 relative binding, control = 100 | GpH7-B3 variant Y300_12R/GpL16-k0 (antibody, human IgG1, kappa, also called Ho Ab Y300_12R) heavy: not shown light: DIVMTQSPLSLPVTPGEPASISCQASESLVHSNRNTYLHWYLQKPGQSPQLLIYKVSNRFSGVPDRFSGSGSGTDFTLKISRVEAEDVGVYYCSQNTHVPPTFGQGTKVEIERTVAAPSVFIFPPSDEQLKSGTASVVCLLNNFYPREAKVQWKVDNALQSGNSQESVTEQDSKDSTYSLSSTLTLSKADYEKHKVYACEVTHQGLSSPVTKSFNRGEC

Each binder was assayed against T1, FcγRIa (assay: SPR (Biacore); He Ab vs HeCon Ab GpH7-A5/GpH7-B3/GpL16-k0).
Procedure: as §1

Binder | He/Con_1a
GpH7-A5/GpH7-B3 variant S298_11K/GpL16-k0 (antibody, human IgG1, kappa, also called He Ab S298_11K) heavy 1: not shown heavy 2: not shown light: DIVMTQSPLSLPVTPGEPASISCQASESLVHSNRNTYLHWYLQKPGQSPQLLIYKVSNRFSGVPDRFSGSGSGTDFTLKISRVEAEDVGVYYCSQNTHVPPTFGQGTKVEIERTVAAPSVFIFPPSDEQLKSGTASVVCLLNNFYPREAKVQWKVDNALQSGNSQESVTEQDSKDSTYSLSSTLTLSKADYEKHKVYACEVTHQGLSSPVTKSFNRGEC | 109 relative binding, control = 100
GpH7-A5/GpH7-B3 variant Q295_02A/GpL16-k0 (antibody, human IgG1, kappa, also called He Ab Q295_02A) heavy 1: not shown heavy 2: not shown light: DIVMTQSPLSLPVTPGEPASISCQASESLVHSNRNTYLHWYLQKPGQSPQLLIYKVSNRFSGVPDRFSGSGSGTDFTLKISRVEAEDVGVYYCSQNTHVPPTFGQGTKVEIERTVAAPSVFIFPPSDEQLKSGTASVVCLLNNFYPREAKVQWKVDNALQSGNSQESVTEQDSKDSTYSLSSTLTLSKADYEKHKVYACEVTHQGLSSPVTKSFNRGEC | 104 relative binding, control = 100
GpH7-A5/GpH7-B3 variant P271_11K/GpL16-k0 (antibody, human IgG1, kappa, also called He Ab P271_11K) heavy 1: not shown heavy 2: not shown light: DIVMTQSPLSLPVTPGEPASISCQASESLVHSNRNTYLHWYLQKPGQSPQLLIYKVSNRFSGVPDRFSGSGSGTDFTLKISRVEAEDVGVYYCSQNTHVPPTFGQGTKVEIERTVAAPSVFIFPPSDEQLKSGTASVVCLLNNFYPREAKVQWKVDNALQSGNSQESVTEQDSKDSTYSLSSTLTLSKADYEKHKVYACEVTHQGLSSPVTKSFNRGEC | 103 relative binding, control = 100
GpH7-A5/GpH7-B3 variant Q295_03V/GpL16-k0 (antibody, human IgG1, kappa, also called He Ab Q295_03V) heavy 1: not shown heavy 2: not shown light: DIVMTQSPLSLPVTPGEPASISCQASESLVHSNRNTYLHWYLQKPGQSPQLLIYKVSNRFSGVPDRFSGSGSGTDFTLKISRVEAEDVGVYYCSQNTHVPPTFGQGTKVEIERTVAAPSVFIFPPSDEQLKSGTASVVCLLNNFYPREAKVQWKVDNALQSGNSQESVTEQDSKDSTYSLSSTLTLSKADYEKHKVYACEVTHQGLSSPVTKSFNRGEC | 104 relative binding, control = 100
GpH7-A5/GpH7-B3 variant Q295_13S/GpL16-k0 (antibody, human IgG1, kappa, also called He Ab Q295_13S) heavy 1: not shown heavy 2: not shown light: DIVMTQSPLSLPVTPGEPASISCQASESLVHSNRNTYLHWYLQKPGQSPQLLIYKVSNRFSGVPDRFSGSGSGTDFTLKISRVEAEDVGVYYCSQNTHVPPTFGQGTKVEIERTVAAPSVFIFPPSDEQLKSGTASVVCLLNNFYPREAKVQWKVDNALQSGNSQESVTEQDSKDSTYSLSSTLTLSKADYEKHKVYACEVTHQGLSSPVTKSFNRGEC | 102 relative binding, control = 100
GpH7-A5/GpH7-B3 variant P271_13S/GpL16-k0 (antibody, human IgG1, kappa, also called He Ab P271_13S) heavy 1: not shown heavy 2: not shown light: DIVMTQSPLSLPVTPGEPASISCQASESLVHSNRNTYLHWYLQKPGQSPQLLIYKVSNRFSGVPDRFSGSGSGTDFTLKISRVEAEDVGVYYCSQNTHVPPTFGQGTKVEIERTVAAPSVFIFPPSDEQLKSGTASVVCLLNNFYPREAKVQWKVDNALQSGNSQESVTEQDSKDSTYSLSSTLTLSKADYEKHKVYACEVTHQGLSSPVTKSFNRGEC | 102 relative binding, control = 100
GpH7-A5/GpH7-B3 variant Q295_14T/GpL16-k0 (antibody, human IgG1, kappa, also called He Ab Q295_14T) heavy 1: not shown heavy 2: not shown light: DIVMTQSPLSLPVTPGEPASISCQASESLVHSNRNTYLHWYLQKPGQSPQLLIYKVSNRFSGVPDRFSGSGSGTDFTLKISRVEAEDVGVYYCSQNTHVPPTFGQGTKVEIERTVAAPSVFIFPPSDEQLKSGTASVVCLLNNFYPREAKVQWKVDNALQSGNSQESVTEQDSKDSTYSLSSTLTLSKADYEKHKVYACEVTHQGLSSPVTKSFNRGEC | 103 relative binding, control = 100
GpH7-A5/GpH7-B3 variant P271_07I/GpL16-k0 (antibody, human IgG1, kappa, also called He Ab P271_07I) heavy 1: not shown heavy 2: not shown light: DIVMTQSPLSLPVTPGEPASISCQASESLVHSNRNTYLHWYLQKPGQSPQLLIYKVSNRFSGVPDRFSGSGSGTDFTLKISRVEAEDVGVYYCSQNTHVPPTFGQGTKVEIERTVAAPSVFIFPPSDEQLKSGTASVVCLLNNFYPREAKVQWKVDNALQSGNSQESVTEQDSKDSTYSLSSTLTLSKADYEKHKVYACEVTHQGLSSPVTKSFNRGEC | 102 relative binding, control = 100

The next lines start with the values.

He/Con_1a | Binder
103 relative binding, control = 100 | GpH7-A5/GpH7-B3 variant P271_20W/GpL16-k0 (antibody, human IgG1, kappa, also called He Ab P271_20W) heavy 1: not shown heavy 2: not shown light: DIVMTQSPLSLPVTPGEPASISCQASESLVHSNRNTYLHWYLQKPGQSPQLLIYKVSNRFSGVPDRFSGSGSGTDFTLKISRVEAEDVGVYYCSQNTHVPPTFGQGTKVEIERTVAAPSVFIFPPSDEQLKSGTASVVCLLNNFYPREAKVQWKVDNALQSGNSQESVTEQDSKDSTYSLSSTLTLSKADYEKHKVYACEVTHQGLSSPVTKSFNRGEC
102 relative binding, control = 100 | GpH7-A5/GpH7-B3 variant P271_06M/GpL16-k0 (antibody, human IgG1, kappa, also called He Ab P271_06M) heavy 1: not shown heavy 2: not shown light: DIVMTQSPLSLPVTPGEPASISCQASESLVHSNRNTYLHWYLQKPGQSPQLLIYKVSNRFSGVPDRFSGSGSGTDFTLKISRVEAEDVGVYYCSQNTHVPPTFGQGTKVEIERTVAAPSVFIFPPSDEQLKSGTASVVCLLNNFYPREAKVQWKVDNALQSGNSQESVTEQDSKDSTYSLSSTLTLSKADYEKHKVYACEVTHQGLSSPVTKSFNRGEC
103 relative binding, control = 100 | GpH7-A5/GpH7-B3 variant Q295_05P/GpL16-k0 (antibody, human IgG1, kappa, also called He Ab Q295_05P) heavy 1: not shown heavy 2: not shown light: DIVMTQSPLSLPVTPGEPASISCQASESLVHSNRNTYLHWYLQKPGQSPQLLIYKVSNRFSGVPDRFSGSGSGTDFTLKISRVEAEDVGVYYCSQNTHVPPTFGQGTKVEIERTVAAPSVFIFPPSDEQLKSGTASVVCLLNNFYPREAKVQWKVDNALQSGNSQESVTEQDSKDSTYSLSSTLTLSKADYEKHKVYACEVTHQGLSSPVTKSFNRGEC
102 relative binding, control = 100 | GpH7-A5/GpH7-B3 variant Q295_04F/GpL16-k0 (antibody, human IgG1, kappa, also called He Ab Q295_04F) heavy 1: not shown heavy 2: not shown light: DIVMTQSPLSLPVTPGEPASISCQASESLVHSNRNTYLHWYLQKPGQSPQLLIYKVSNRFSGVPDRFSGSGSGTDFTLKISRVEAEDVGVYYCSQNTHVPPTFGQGTKVEIERTVAAPSVFIFPPSDEQLKSGTASVVCLLNNFYPREAKVQWKVDNALQSGNSQESVTEQDSKDSTYSLSSTLTLSKADYEKHKVYACEVTHQGLSSPVTKSFNRGEC
102 relative binding, control = 100 | GpH7-A5/GpH7-B3 variant P271_04F/GpL16-k0 (antibody, human IgG1, kappa, also called He Ab P271_04F) heavy 1: not shown heavy 2: not shown light: DIVMTQSPLSLPVTPGEPASISCQASESLVHSNRNTYLHWYLQKPGQSPQLLIYKVSNRFSGVPDRFSGSGSGTDFTLKISRVEAEDVGVYYCSQNTHVPPTFGQGTKVEIERTVAAPSVFIFPPSDEQLKSGTASVVCLLNNFYPREAKVQWKVDNALQSGNSQESVTEQDSKDSTYSLSSTLTLSKADYEKHKVYACEVTHQGLSSPVTKSFNRGEC
103 relative binding, control = 100 | GpH7-A5/GpH7-B3 variant Q295_07I/GpL16-k0 (antibody, human IgG1, kappa, also called He Ab Q295_07I) heavy 1: not shown heavy 2: not shown light: DIVMTQSPLSLPVTPGEPASISCQASESLVHSNRNTYLHWYLQKPGQSPQLLIYKVSNRFSGVPDRFSGSGSGTDFTLKISRVEAEDVGVYYCSQNTHVPPTFGQGTKVEIERTVAAPSVFIFPPSDEQLKSGTASVVCLLNNFYPREAKVQWKVDNALQSGNSQESVTEQDSKDSTYSLSSTLTLSKADYEKHKVYACEVTHQGLSSPVTKSFNRGEC
102 relative binding, control = 100 | GpH7-A5/GpH7-B3 variant P271_12R/GpL16-k0 (antibody, human IgG1, kappa, also called He Ab P271_12R) heavy 1: not shown heavy 2: not shown light: DIVMTQSPLSLPVTPGEPASISCQASESLVHSNRNTYLHWYLQKPGQSPQLLIYKVSNRFSGVPDRFSGSGSGTDFTLKISRVEAEDVGVYYCSQNTHVPPTFGQGTKVEIERTVAAPSVFIFPPSDEQLKSGTASVVCLLNNFYPREAKVQWKVDNALQSGNSQESVTEQDSKDSTYSLSSTLTLSKADYEKHKVYACEVTHQGLSSPVTKSFNRGEC
105 relative binding, control = 100 | GpH7-A5/GpH7-B3 variant Q295_08L/GpL16-k0 (antibody, human IgG1, kappa, also called He Ab Q295_08L) heavy 1: not shown heavy 2: not shown light: DIVMTQSPLSLPVTPGEPASISCQASESLVHSNRNTYLHWYLQKPGQSPQLLIYKVSNRFSGVPDRFSGSGSGTDFTLKISRVEAEDVGVYYCSQNTHVPPTFGQGTKVEIERTVAAPSVFIFPPSDEQLKSGTASVVCLLNNFYPREAKVQWKVDNALQSGNSQESVTEQDSKDSTYSLSSTLTLSKADYEKHKVYACEVTHQGLSSPVTKSFNRGEC
